Target: Gal4-SNAP-VP16 labeled with SNAP-Surface-649 (S. cerevisiae | herpes simplex virus) (UniProt P04386)
Assay: colocalization single-molecule spectroscopy

“Mediator complex with Med7-HA-SNAP labeled with SNAP-Surface-549 (from UniProt Q08278 1-222)” was tested, and the duration of individual binding events (at 10 nM Gal4-VP16^649) was 1 s.

Source: paper PMC11661148
